# Measured values published in the DeepSol protein solubility set.
# Assay: soluble on expression in E. coli; label from the status in PepcDB or PDB records
row,Sequence,soluble on expression in E. coli
1,MWIGMRDKWKGVGKVTQQEIIESLLQFINQETSTEEEFNEHALMLFAYQYENNLPYRTYCMQKGKTARTVKTWRDIPAVPINAFKELTLSCVSPEQAERVFMTSGTTRGVRGKHYHPTLSVYDHSMIVNFRKRFMKERDKIKMGILFPTEEHMPNSSLAHYLALAVNVFGTEDSHYLVDRDGLNMDRLLAELEQAEQSGEPYALLGASFSFVHVFEELAKRGKTFRLPEGSRILDTGGFKNQSREMDLDEFYDTLSAYLGVPRRECINMYGMTELSTQFYDDGNETVPSVKSGPHWIRTRVIHPLTGEEMPKGKRGVLVHCDLGNFNSVTTILTEDMGVETDGGFLLLGRVQGAEAKGCSMAVEEFIRAAKGTSELEHHHHHH,not soluble
2,MELQEVLHMNGGEGDTSYAKNSSYNLFLIRVKPVLEQCIQELLRANLPNINKCFKVGDLGCASGPNTFSTVRDIVQSIDKVGQEKKNELERPTIQIFLNDLFQNDFNSVFKLLPSFYRNLEKENGRKIGSCLIGAMPGSFYSRLFPEESMHFLHSCYCLHWLSQVPSGLVTELGISVNKGCIYSSKASRPPIQKAYLDQFTKDFTTFLRIHSEELISRGRMLLTFICKEDEFDHPNSMDLLEMSINDLVIEGHLEEEKLDSFNVPIYAPSTEEVKRIVEEEGSFEILYLETFNAPYDAGFSIDDDYQGRSHSPVSCDEHARAAHVASVVRSIYEPILASHFGEAILPDLSHRIAKNAAKVLRSGKGFYDSVIISLAKKPEKADM,soluble
3,SNAMADKIKVGLLGYGYASKTFHAPLIMGTPGLELAGVSSSDASKVHADWPAIPVVSDPQMLFNDPSIDLIVIPTPNDTHFPLAQSALAAGKHVVVDKPFTVTLSQANALKEHADDAGLLLSVFHNRRWDSDFLTLKTLLAEGSLGNVVYFESHFDRYRPEIRQRWREQAGAGGGIWYDLGPHLLDQALQLFGLPETLNVDLGMLRPGSQSVDYFHAVLSYPGQRVVLHSTVLAAAETARYIVHGTQGSYIKFGVDPQEDRLKAGERLPQADWGYDMRDGIVTLSHDNVLTEKPLLTLPGNYPAYYAGIRDAIWGTAPNPVPATEAIKVMELIELGIASDQQKKALPIIAKN,soluble
4,SKIYDNKNQLIADLGSERRVNAQANDIPTDLVKAIVSIEDHRFFDHRGIDTIRILGAFLRNLQSNSLQGGSTLTQQLIKLTYFSTSTSDQTISRKAQEAWLAIQLEQKATKQEILTYYINKVYMSNGNYGMQTAAQNYYGKDLNNLSLPQLALLAGMPQAPNQYDPYSHP,not soluble
5,MGHHHHHHSHMAQLMEVLSVTPTQSPENNDLISYNSVWVACQQMPQIPRDNKAAALLMLTKNVDFVKDAHEEMEQAVEECDPYSGLLNDTEENNSDNHNHEDDVLGFPSNQDLYWSEDDQELIIPCLALVRASKACLKKIRMLVAENGKKDQVAQLDDIVDISDEISPSVDDLALSIYPPMCHLTVRINSAKLVSVLKKALEITKASHVTPQPEDSWIPLLINAIDHCMNRIKELTQSELEL,not soluble
6,MSSRAVSLLSRVISQNRGLASLRETVGERDASLLYEPKFQDSREFPEYNTINVRIQGHDFGSLEKYQAYIHKTAKRFGFTVVDSYAVAAQTQKAITYKPYSTVSESEIDMSTYDRVVRLSDVAAPRFSLFSQIIRAHIPIGVTMTVKEHEKVDEDSRYIPDLLLKQKQEELKALDDPNVRRNLGWE,not soluble
7,MEITDPGDFRQRIETSFARQGVVQAINAEISRIEHRLVEIELPFHEKLTQQHGILHAGVIAAGLDTACTYAAYTIIEPEASLLTIEFKVNLMSPGRGERFLFRGEIIKPGNNLIVADGRAYALSDGPAKLIASMTGTMMVVKGREDITGLEHHHHHH,soluble
8,MGSDKIHHHHHHMSQERTDGDLRNTGLSLKHDREWDYELDRIVEAVEERDAEKVGLQFPEGLKRRGPAVADDLREELPDDVTVLLSGQPCYGACDLDTYMMRRTDVFVHFGHSPMKESDKIIYVPLFSNVDVFPIMEQAREEQLADPEDDPDVGLVTTAQHMNKFDEMREWLEERGYTVHTRRGDERLTHEGQVLGCNYASADVDADQMLYVGGGKFHPLGLAMEHPEKHVVIADPVNNVVTVADTEKFMKQRYGAVHRAMDAESWGVIFCTKIGQGRWDQAEEIVENNENAYLITMDEVTPDRLTNFGMDAYVNTGCPRITTDDGPQFKKPMLTPGEYEIAIGEKPLDSLEFDTFHGTW,not soluble
9,MAQLYFYYSAMNAGKSTSLLQSSYNYRERGMNTLVMTASIDDRYGKGKVASRIGIESDAQVFSSHDNLIEMITAAHQENHLSCVLVDECQFLSKEQVKQLTYIVDKIDIPVLCYGLRTDFQGELFSGSHYLLAWADKLVELKTICHCGRKANMVVRLDGEGKVMREGEQVAIGGNESYESVCRKHFREFIWD,soluble
10,MSRNDLFKQPLDTINVGIDFIHEDMKKQGIPSHQVNWAPPANGDPELLKLLDQLKNPTLYEKIQQANEEAVTRIIQSKPILVGFDKAINVMPDMTETTILHAGPPITYENMCGPMKGAVQGALVFEGLAKDLADADRVARSGAITFSPCHEHDAVGSMAGVTSPNMYVHIIKNETYGNTAFTNLSEQLAKVLRFGANDQSVVDRLIWMRDVLGPLLHDAMTFCPEGIDLRLMLSQALHMGDECHNRNVAGSTLLVQALTPYMVQTDFSREQLKEVFEFLGSSDYFSGPTWMGAAKCALDAGHNVENSTIVTTMCRNGVEFGIRVSGIGGNHWFTGPAQRVIGPMFAGYTQEDAGLDMGDSAITETYGVGGFAMAAAPAIVPLVGGTVAEALNYSKEMLEITTKENPNVTIPVLDFMGIPTGIDVLKVLETGMLPVINTAIAHKEPGIGMIGAGLTNPPANVFNEALKALVATIN,soluble
11,MAKHEQILVLDPPSDLKFKGPFTDVVTTNLKLQNPSDRKVCFKVKTTAPRRYCVRPNSGIIDPGSIVTVSVMLQPFDYDPNEKSKHKFMVQTIFAPPNISDMEAVWKEAKPDELMDSKLRCVFEMPNENDKLND,soluble
12,MSDITTKSTKQTESLVCGEFKALGPAPYYVGDEIIVMRCAETINEIFSDWTKRANLDENKYTPFDVNAPIELPRRTDMLKSYNLDPPINETGKIASKMIARELCDRHAIPSVIFCSPDFASVETAHLIKSYIGEKCGAIRIEPELSTLHKSAHVFFGPNHFTSLGYGIDEKNPLHAVSDGVSLSDLVNRIKRAFYELTSKVDNALIIVDSLSMMIISSLFHNVYIRNDSSVDLERLRSLASFPSLSNFTAYRVGGQTGVKTYDLTSTCLRPLTFTGFSNEIDLE,not soluble
13,MPLEGEYEPSPTQWVRDQVELYESSGGTKGTTLMDTGLPVIILTTLGAKSGKIRKTPLMRVEHDGKYAAVASLGGAPKHPVWYYNVLGTPAVELQDGAVRKEFTAREVTGEEKAQWWERAVAAYPPYAEYQEKTDREIPVFVLEPAG,not soluble
14,DCCSCQEKWVGYRCNCYFISSEQKTWNESRHLCASQKSSLLQLQNTDELDFMSSSQQFYWIGLSYSEEHTAWLWENGSALSQYLFPSFETFNTKNCIAYNPNGNALDESCEDKNRYICKQQLI,soluble
15,MGHHHHHHSHMLINARISVRSYPKYQRFSFFYALLFKRIDLILAQSKEDKKRLLNLGAKKVVDFLNIKRFSKPVITSFYPKNPSALNIVLASTHEGEEELGLKAFLELKKTFKNARLIVVPRHPERFKSVQDLLQNTLKTTPFSWECFSSKGFVECDILLVDSLGELNNFYQIADIVILGGSFVKMGGHNPLEPAFFNARLITGEYIFNQVALFELVKPYKIVPKEDLLDALLDYKNLGMARFLENGHDLNELLAFIKH,not soluble
16,MASSGYLYSLVAEDGVWQAFVSKAKLSRERAVALHKALRELTALLAIADRGRLQKGLKGREKFLKVFPRLKAELVEHISQLHALADHAEKLHRGCTISNVVADSFSAASDILSLLGLFLAPVTAEGSLVLSATGLGLGVAATVTDVATSIVEETSRVLDEVEAAPTGTHVLGEAGTSVDRIASKVPQATRDITRDLEALEQHMNALRLVRANPRLEEDARILATTGSISAQRAMQVRASLKGTPLAMSNEARIQRATAAGAALWSDVDSLVKESKHLYEGSASESAEALRKLARELEEKLEGLMEFYKTI,soluble
17,MDLKGGESMVDWKLMQEIIEAPGVSGYEHLGIRDIVVDVLKEVADEVKVDKLGNVIAHFKGSSPRIMVAAHMDKIGVMVNHIDKDGYLHIVPIGGVLPETLVAQRIRFFTEKGERYGVVGVLPPHLRRGQEDKGSKIDWDQIVVDVGASSKEEAEEMGFRVGTVGEFAPNFTRLNEHRFATPYLDDRICLYAMIEAARQLGDHEADIYIVGSVQEEVGLRGARVASYAINPEVGIAMDVTFAKQPHDKGKIVPELGKGPVMDVGPNINPKLRAFADEVAKKYEIPLQVEPSPRPTGTDANVMQINREGVATAVLSIPIRYMHSQVELADARDVDNTIKLAKALLEELKPMDFTP,soluble
18,MAHHHHHHMAYPYNAYLGYTQPPTQYGQPPVVAGAHGHLPVTTPLPYNAQSAYGGAQPPMPTSTGVYAPSARHMNDNQELMEWFRAVDTDGSGAISVPELNAALSSAGVPFSLATTEKLLHMYDKNHSGEITFDEFKDLHHFILSMREGFRKRDSSGDGRLDSNEVRAALLSSGYQVSEQTFQALMRKFDRQRRGSLGFDDYVELSIFVCRVRNVFAFYDRERTGQVTFTFDTFIGGSVSIL,soluble
19,MWPPCFWWRTSPACAWGCGWPSRGRGTGFWRRPPRRRPWPLLREAELVVLDWMLPDEPGVRLLDRMRQGPYESLPVLMLTARAGVRDRVEGLSRGADDYLVKPFAVEELLARLEALLRRAGKRKVLRRGPLLLDLERMEARLEGNPLPLTRREFALLAYLAERPGRVCTREELLEAVWGPDYLGTPRTVDQHVLQLREKLGEDPKAPRFLETVRGVGYRFREEA,soluble
20,MGSDKIHHHHHHMLDDIKKTLWAAADKLRANVDAAEYKHLVLGLIFLKFVSDTFAARRAELERRFVDVNDDYFLHDADADFIAEELEERDYYIEVNVFWVPEPARWEGLRANAKQANIGKQIDDALDAIEKENPSLKGILDKRYARAPLPDGKLGELVDLISTIGFGEDQSKARDILGQVYEYFLGQFASAEGKKGGQFYTPQSIVNTLVAVLDPHQGKVYDPCCGSGGMFVQSEKFIEAHGGKLGDVSIYGQESNPTTWRLAAMNLAIRGIDFNLGREPGDTFTKNQHSDLRADYILANPPFNISDWWHGSLEGDPRWVYGNPPQGNANYAWLQHMLYHLKPTGRAGIVLANGSMSSSQNTEGDIRRAMVDADVVEVMVALPGQLFFNTQIPACLWFLTKQKTARKGEVLFIDARKLGKMISRVQSELDQAAIDRIANTAKAWRGEDMTGVEGFEDGYQDIPGFCRSVPLSEIAEHGHVLTPGRYVGAEEVEDCDDAFADKMTMLTEKLAEQMAKGAELDQLIRQKLGGLGYEF,not soluble
21,MARLSDLIEAFIKQLIDDTDGTIEIQRNELASQFNCVPSQINYVIDTRFTTERGYYVESRRGGGGYIKITRVSIGHEGKNYLMHIINSMGDSISQQSAHVFINNFVDHNVVTEKEAMLLKAATSDKALAAVPVESRGQIRASILKNMLVCLLV,soluble
22,GPGSMWVEAYRAGCAEVSADVREDVSSSGATGELIVRGNTFDNFKNRVTDTDVQAILAALRVCPGMSALYLPYNNITSEGGVLLGKALGHQLDSIITLDVQYNSLGAEAGVAIAQGLQRNDSLCHVTLAGNPLGGCCGAALGEALRQNMNLAVLDLFNTDLGMEALVHICRSLEGNKGLSSLNIGRPLLHGVDELESVVNHLSIALQRNSTLEELHMAYFGLVDDCLQTLVLALCGSAVTTLCIKGNKVSQDAGQLLARLLDRRQDFRNLDVSCNRLRDAGAAALAKGVAHHPQLESLGLESCTISERGLVVLVESLKSCATVRRLTLWGNDVTPAVASSLTATFCDLRELDYIDVGVMEQDGQLVAYRA,not soluble
